Test results from patent publication US20260116966A1 (KEYMED BIOSCIENCES CHENGDU, published 2026).
Residue numbers refer to the chain shown, from its start.

B1: anti-GPRC5D chimeric antibody 10B1 (antibody, V domains shown)
VH: QVQLQQSGAELARPGASVKMSCKASGYIFTSYTMYWVKQRPGQGLEWIGYINPSSGYTNYNQKFKDKATLTADKSSSTAYMQLSSLTSEDSAVYYCARWGGNERLYYYAMDYWGQGTSVTVSS
VL: QIVLTQSPAIMSASPGEKVTITCSASSSVSYMYWFQQKPGTSPKLWIYGTSNLASGVPARFSGSGSGTSYSLTISRMEAEDAATYYCQQRSSYPLTFGAGTKLELK
B2: 2F1 × CD3 GPRC5D×CD3 κλ bispecific antibody (bispecific antibody, human IgG4 S228P, kappa, lambda)
heavy 1: QVQLVQSGAEVKKPGSSVKVSCKASGYSFTGYTMNWVREAPGQGLEWMGLINPYNGGTRYNQKFQGRVTLTVDKSSSTAYMELSSLRSEDTAVYYCARWALRYGMDYWGQGTLVTVSSASTKGPSVFPLAPCSRSTSESTAALGCLVKDYFPEPVTVSWNSGALTSGVHTFPAVLQSSGLYSLSSVVTVPSSSLGTKTYTCNVDHKPSNTKVDKRVESKYGPPCPPCPAPEFEGGPSVFLFPPKPKDTLMISRTPEVTCVVVDVSQEDPEVQFNWYVDGVEVHNAKTKPREEQFNSTYRVVSVLTVLHQDWLNGKEYKCKVSNKGLASSIEKTISKAKGQPREPQVCTLPPSQEEMTKNQVSLSCAVKGFYPSDIAVEWESNGQPENNYKTTPPVLDSDGSFFLVSKLTVDKSRWQEGNVFSCSVMHEALHNHYTQKSLSLSLGK
light 1: DIQMTQSPSSLSASVGDRVTITCRASQNVGTNVAWYQKKPGKAPKALIYSASYRNSGVPSRFSGSGSGTDFTLTISSLQPEDFATYFCQQYNSYLLTFGGGTKVEIKRTVAAPSVFIFPPSDEQLKSGTASVVCLLNNFYPREAKVQWKVDNALQSGNSQESVTEQDSKDSTYSLSSTLTLSKADYEKHKVYACEVTHQGLSSPVTKSFNRGEC
heavy 2: EVQLVESGGGLVQPGGSLRLSCAASGFTFNTYAMNWVRKAPGKGLEWVGRIRSKYNNYATYYADSVKDRFTISRDDSKNSLYLQMNSLKTEDTAVYYCVRHGNFGNSYVSWFAYWGQGTLVTVSSASTKGPSVFPLAPCSRSTSESTAALGCLVKDYFPEPVTVSWNSGALTSGVHTFPAVLQSSGLYSLSSVVTVPSSSLGTKTYTCNVDHKPSNTKVDKRVESKYGPPCPPCPAPEFEGGPSVFLFPPKPKDTLMISRTPEVTCVVVDVSQEDPEVQFNWYVDGVEVHNAKTKPREEQFNSTYRVVSVLTVLHQDWLNGKEYKCKVSNKGLASSIEKTISKAKGQPREPQVYTLPPCQEEMTKNQVSLWCLVKGFYPSDIAVEWESNGQPENNYKTTPPVLDSDGSFFLYSKLTVDKSRWQEGNVFSCSVMHEALHNHYTQKSLSLSLGK
light 2: QAVVTQEPSLTVSPGGTVTLTCRSSTGAVTTSNYANWVQEKPGQAPRGLIGGTNKRAPWTPARFSGSLLGGKAALTITGAQAEDEAEYYCVLWYSNLWVFGGGTKLTVLGQPKAAPSVTLFPPSSEELQANKATLVCLISDFYPGAVTVAWKADSSPVKAGVETTTPSKQSNNKYAASSYLSLTPEQWKSHRSYSCQVTHEGSTVEKTVAPTECS
notes: Human IgG4 knob-into-hole, Ser228Pro, Leu235Glu, Pro329Ala; also called parent 2F1×CD3 bispecific antibody
B3: anti-GPRC5D chimeric antibody 1C1 (antibody, V domains shown)
VH: QAYLQQSGAELVRSGASVKMSCKASGYTFTSYNMHWVKQTPGQGLEWIGYIYPGNGGTNYNQKFKAKATLTADTSSSTAYMQISSLTSEDSAVYFCARGYGYRYWYFDVWGAGTTVTVSS
VL: NIVLTQSPAIMSASPGEKVTMTCSASSSVRFMHWYQQKSGTSPKRWIYDTSKVASGVPARFSGSGSGTSYSLTIRSMEAEDAATYYCQQWSSNPLTFGAGTKLELK
B4: anti-GPRC5D chimeric antibody 18E7 (antibody, V domains shown)
VH: EVQLQQSGPELVKPGASVKMSCKASEYTFTNYVMYWVKQKPGQGLEWIGYINPYNDGTKYNEKFKGKATLTSDKSSSTAYMELSSLTSEDSAVYYCVRGGMLTTRSLFAYWGQGTLVTVSA
VL: DIQMTQSPSSLSASLGERVSLTCRASQRISGYLSWLQQKPDGTIKRLIYAASTLDSGVPKRFSGSRSGSDYSLTISSLESEDFADYYCLQYASYPPTFGGGTKLEIK
B5: anti-GPRC5D chimeric antibody 17D12 (antibody, V domains shown)
VH: B4 VH with E26G, N31S, G44V, K63R, K65T, V97A, A109L
VL: B4 VL with Q3V, T5S, R28E, L33F
B6: anti-GPRC5D chimeric antibody 15H5 (antibody, V domains shown)
VH: B4 VH with K23M, E26G, N31S, V97A, A109V, Q113H
VL: B4 VL with R28E, F98Y
B7: anti-GPRC5D chimeric antibody 12A4 (antibody, V domains shown)
VH: B4 VH with A109T
VL: B4 VL
B8: anti-GPRC5D chimeric antibody 15A6 (antibody, V domains shown)
VH: B4 VH with E26G, G44V, K65T, V97A, A109V
VL: B4 VL with R28E, L33F
B9: anti-GPRC5D chimeric antibody 14D1 (antibody, V domains shown)
VH: B4 VH with E10D, E26G, T28K, N31S, P41T, L83F
VL: B4 VL with R28E, L33F
B10: anti-GPRC5D chimeric antibody 19E2 (antibody, V domains shown)
VH: B4 VH
VL: B4 VL with S93N
B11: anti-GPRC5D chimeric antibody 18C3 (antibody, V domains shown)
VH: EVQLVESGGDLVKPGGSLKLSCAASGFTFSSYGMSWVRQTPDKRLEWVATISSGGSYTYYPDSVKGRFTISRDNAKNTLYLQMSSLKSEDTAMYYCARHEARATFDYWGQGTTLTVSS
VL: DIVMTQAAPSVPVTPGESVSISCRSSKSLLHSNGNTYLYWFLQRPGQSPQLLIYRMSNLASGVPDRFSGSGSGTAFTLRISRVEAEDVGVYYCMQHLEYPFTFGSGTKLEIK
B12: anti-GPRC5D chimeric antibody 8C2 (antibody, V domains shown)
VH: EVQLVESGGDLVKPGGSLKLSCAASGFTFSSYGMSWVRQTPDKRLEWVATISSGGSYTYYPDSVKGRFTISRDNAKNTLYLQMSSLKSEDTAMYYCARHGGSSSYVMDYWGQGTSVTVSS
VL: B11 VL
B13: 2E1 × CD3 GPRC5D×CD3 κλ bispecific antibody (bispecific antibody, human IgG4, V domains shown)
VH 1: QVQLVQSGAEVKKPGSSVKVSCKASGYTFTRYWMHWVREAPGQGLEWMGEFNPSNGRINYNEKFQGRVTLTIDKSSSTAYMELSSLRSEDTAVYYCTRGFAYWGQGTLVTVSS
VL 1: EIVLTQSPATLSLSPGERATLSCRASSTVSYIHWYQKKPGQAPRRLIYDTSKLASGIPARFSGSGSGTDYTLTISSLEPEDFAVYYCQQWTTNPWTFGGGTKVEIK
VH 2: EVQLVESGGGLVQPGGSLRLSCAASGFTFNTYAMNWVRKAPGKGLEWVGRIRSKYNNYATYYADSVKDRFTISRDDSKNSLYLQMNSLKTEDTAVYYCVRHGNFGNSYVSWFAYWGQGTLVTVSS
VL 2: QAVVTQEPSLTVSPGGTVTLTCRSSTGAVTTSNYANWVQEKPGQAPRGLIGGTNKRAPWTPARFSGSLLGGKAALTITGAQAEDEAEYYCVLWYSNLWVFGGGTKLTVL
notes: Human IgG4 knob-into-hole Fc with Ser228Pro, Leu235Glu, Pro329Ala; kappa light chain on the GPRC5D arm, lambda on the CD3 arm
B14: 4B1 × CD3 GPRC5D×CD3 κλ bispecific antibody (bispecific antibody, human IgG4, V domains shown)
VH 1: QAQLVQSGAEVKKPGSSVKVSCKASGYTFTSYNMHWVREAPGQGLEWMGYIYPGNGGTNYNQKFQGRVTLTADTSSSTAYMELSSLRSEDTAVYFCARGYGYRYWYFDVWGQGTLVTVSS
VL 1: B13 VL 1 with T28S, I32M, T91S, T92N, N93Y, W95P
VH 2: B13 VH 2
VL 2: B13 VL 2
notes: Human IgG4 knob-into-hole Fc with Ser228Pro, Leu235Glu, Pro329Ala
B15: anti-GPRC5D chimeric antibody 10E8 (antibody, V domains shown)
VH: EVQLQQSGPELVKPGASMKISCKASGYSFTGYTMNWVKQRHGKNLEWIGLINPYNGGTSYNQKFKGKATLTVDKSSSTAYMELLSLTSEDSAVYYCARLPIRNGMDYWGQGTSVTVSS
VL: DIVLTQSPATLSVTPGDSVSLSCRASQSISNNLHWYQQKSHESPRLLVKFASLSISGIPSRFSGSGSGTDFTLSINSVETEDFGMYFCQQSNSWPQTFGGGTKLEIK
B16: anti-GPRC5D chimeric antibody 22C1 (antibody, V domains shown)
VH: B15 VH with A16T, R40S, T58S, S59N, Q62L, S77N, L99W, P100G, I101L, G104A
VL: B15 VL with L4V, Y36F, V48I, F50Y, L53Q

Assays:
[1] = target: T1, Cynomolgus GPRC5D (Cynomolgus, UniProt Q9NZD1 1-343 (human entry)); test: flow cytometry, CHO-cyGPRC5D cells
T1 construct: Full length, on stably transfected cells (HEK293-cyGPRC5D, CHO-cyGPRC5D); also called cyGPRC5D
T1 chain: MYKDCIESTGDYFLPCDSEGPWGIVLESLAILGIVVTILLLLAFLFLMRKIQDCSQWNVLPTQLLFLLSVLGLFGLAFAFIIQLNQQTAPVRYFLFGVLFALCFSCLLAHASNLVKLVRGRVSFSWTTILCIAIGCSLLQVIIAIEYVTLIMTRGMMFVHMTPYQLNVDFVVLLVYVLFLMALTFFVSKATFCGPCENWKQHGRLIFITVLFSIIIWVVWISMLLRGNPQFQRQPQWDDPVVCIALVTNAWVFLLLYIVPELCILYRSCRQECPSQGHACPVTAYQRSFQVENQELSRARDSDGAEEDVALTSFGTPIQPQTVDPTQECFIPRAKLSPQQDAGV
Procedure: (§1) The binding of the antibodies to human and Cynomolgus GPRC5D stably transfected cells was detected by flow cytometry. […] Then, 100 μl/well of the cell suspension was added to a 96-well U-shaped plate, and centrifuged at 300 g for 5 min. The supernatant was discarded. 100 μL per well of serially diluted antibody was added (initial concentration: 200 nM, 3-fold dilution, 12 gradients), and incubated at 4° C. for 45 min. The secondary antibody 50 μL/well of Alexa Fluro647 labeled goat anti-human IgG Fc (1:300 dilution) was added, incubated on ice for 45 min, and detected by flow cytometry.

[2] = target: T2, human GPRC5D (human, UniProt Q9NZD1 1-345); test: flow cytometry on CHO-hGPRC5D cells
T2 construct: Full length, on stably transfected cells (HEK293-hGPRC5D, CHO-hGPRC5D); Also used here for the endogenous GPRC5D of the GPRC5D+ myeloma lines MM.1R, MM.1S and NCI-H929; also called hGPRC5D; G-protein-coupled receptor family C group 5 member D
T2 sequence (Q9NZD1 whole entry): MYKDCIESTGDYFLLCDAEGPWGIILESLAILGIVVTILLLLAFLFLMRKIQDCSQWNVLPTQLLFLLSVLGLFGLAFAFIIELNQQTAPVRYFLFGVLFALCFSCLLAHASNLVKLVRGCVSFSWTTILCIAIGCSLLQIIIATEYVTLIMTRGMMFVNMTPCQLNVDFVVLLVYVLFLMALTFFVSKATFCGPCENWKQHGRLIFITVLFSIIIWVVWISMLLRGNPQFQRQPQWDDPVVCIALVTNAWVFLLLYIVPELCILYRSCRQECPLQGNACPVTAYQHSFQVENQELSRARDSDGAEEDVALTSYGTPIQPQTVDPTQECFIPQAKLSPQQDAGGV
Procedure: as §1

[3] = target: T2, human GPRC5D; test: cell-based or functional assay
[4] = target: T2, human GPRC5D; test: flow cytometry, MM.1R cells
Procedure: The cell suspension was adjusted to a concentration of 5×10⁵ cells/mL, and 100 μL per well was added to a 96-well U-shaped plate, centrifuged at 300 g for 5 min. The supernatant was discarded. 100 μL per well of serially diluted antibody was added (initial concentration: 200 nM, 3-fold dilution, 10 gradients), and incubated at 4° C. for 60 min. The primary antibody was washed away, and 50 μL/well Alexa Fluro647 labeled goat anti-human IgG FC (1:300 dilution) was added, and incubated for 20 min. After washing once, 50 μL/well of PI was added, incubated for 5 min, and detected by flow cytometry.

Binder	binding result [1]	binding result [2]	TDCC EC50 (pM), MM.1R [3]	EC50 [4]	Maximum fluorescence intensity (MFI, 200 nM) [4]
B1	binds	binds			
B2			0.65 pM	1.51 nM	94600 MFI
B3	binds	binds			
B4	binds	binds			
B5	binds	binds			
B6	binds	binds			
B7	binds	binds			
B8	binds	binds			
B9	binds	binds			
B10	binds	binds			
B11	binds	binds			
B12	binds	binds			
B13			161 pM	6.88 nM	65700 MFI
B14			6.95 pM	3.35 nM	70900 MFI
B15	binds	binds			
B16	binds	binds			
